Usually kon stands for the rate constant with which the complex forms. Low values mean slower complex formation, high ones faster complex formation.

Data on one molecule can be found in patent US20140341881A1 (DERMADIS, published 2014).

Assay [1] addresses T1, human chymotrypsin (Chtr) (human, UniProt P17538 19-263). The assay can be described thus: progress curve.
Assay [2] deals with T2, human plasma kallikrein (PK) (human, UniProt P03952 20-638). The assay can be described thus: progress curve.
Assay [3] deals with T3, human kallikrein 14 (hK14) (human, UniProt Q9P0G3 25-251, limits assumed).
T3 construct: range counted on GenBank AAK48524 (printed), which may differ from the UniProt numbering; also called recombinant hK14
T3 sequence (looked up): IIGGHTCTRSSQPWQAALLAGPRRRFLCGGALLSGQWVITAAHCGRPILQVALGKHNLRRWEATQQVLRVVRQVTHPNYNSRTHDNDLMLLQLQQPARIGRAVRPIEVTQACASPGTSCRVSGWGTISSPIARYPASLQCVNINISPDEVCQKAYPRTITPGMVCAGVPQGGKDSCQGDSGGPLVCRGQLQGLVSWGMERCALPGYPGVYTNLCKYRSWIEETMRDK
Nature of the assay: progress curve.

Assay [4] deals with T1, human chymotrypsin (Chtr). Nature of the assay: cell-based or functional assay.
Assay [5] addresses T2, human plasma kallikrein (PK). Nature of the assay: cell-based or functional assay.
In assay [6] the target is T4, human neutrophil elastase (HNE) (human, UniProt P08246 30-247, limits assumed).
T4 sequence (looked up): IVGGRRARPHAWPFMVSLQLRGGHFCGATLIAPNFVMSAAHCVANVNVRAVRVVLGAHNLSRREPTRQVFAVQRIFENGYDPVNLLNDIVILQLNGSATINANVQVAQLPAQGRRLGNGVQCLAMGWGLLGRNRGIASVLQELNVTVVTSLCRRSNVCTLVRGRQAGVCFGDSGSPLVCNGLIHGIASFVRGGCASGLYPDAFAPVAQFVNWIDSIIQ
The assay can be described thus: cell-based or functional assay.

For another assay, the target named is thrombin. The assay can be described thus: cell-based or functional assay.
Assay [7] deals with T3, human kallikrein 14 (hK14). Nature of the assay: cell-based or functional assay.
For assay [8], the target named is T5, human kallikrein 8 (hK8) (human, UniProt O60259 33-260).
T5 sequence (looked up): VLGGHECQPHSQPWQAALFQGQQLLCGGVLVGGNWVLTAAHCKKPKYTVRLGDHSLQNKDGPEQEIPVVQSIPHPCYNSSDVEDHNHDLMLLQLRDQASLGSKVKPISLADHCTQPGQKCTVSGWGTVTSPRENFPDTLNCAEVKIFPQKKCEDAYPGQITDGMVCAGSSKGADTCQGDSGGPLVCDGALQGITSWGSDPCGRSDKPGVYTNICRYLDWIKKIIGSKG
The assay can be described thus: cell-based or functional assay.

Assay [9] concerns the target T1, human chymotrypsin (Chtr). Nature of the assay: residual enzyme activity against [I]o/[E]o.
The target in assay [10] is T2, human plasma kallikrein (PK). The assay can be described thus: residual enzyme activity against [I]o/[E]o.
The target of assay [11] is T3, human kallikrein 14 (hK14). Nature of the assay: residual enzyme activity against [I]o/[E]o.
Assay [12] has as its target T5, human kallikrein 8 (hK8). The assay can be described thus: residual enzyme activity against [I]o/[E]o.
The target of another assay is T6, human kallikrein 2 (hK2) (human, UniProt P20151 25-261).
T6 construct: two preparations treated as one molecule; also called kallikrein hK2
Nature of the assay: Western blot, 1 µg inhibitor with 100 ng kallikrein, 1 h at 37 C. The method, then:
(§1) Analysis of the inhibitory reaction between rACTs and the human kallikreins were analysed by Western Blot (data not shown). For each variants of ACT, 1 μg of inhibitor was incubated with 100 ng of either hK2 or hK3 during 1 hour at 37° C. under physiological conditions.
For orientation: A western blot detects proteins with antibodies after separation by electrophoresis.

In assay [13] the target is prostate specific antigen (PSA, hK3) (human, UniProt P07288 25-261). The assay is described as above. As for the experimental part: as §1

T2 sequence (P03952 20-638 limits assumed): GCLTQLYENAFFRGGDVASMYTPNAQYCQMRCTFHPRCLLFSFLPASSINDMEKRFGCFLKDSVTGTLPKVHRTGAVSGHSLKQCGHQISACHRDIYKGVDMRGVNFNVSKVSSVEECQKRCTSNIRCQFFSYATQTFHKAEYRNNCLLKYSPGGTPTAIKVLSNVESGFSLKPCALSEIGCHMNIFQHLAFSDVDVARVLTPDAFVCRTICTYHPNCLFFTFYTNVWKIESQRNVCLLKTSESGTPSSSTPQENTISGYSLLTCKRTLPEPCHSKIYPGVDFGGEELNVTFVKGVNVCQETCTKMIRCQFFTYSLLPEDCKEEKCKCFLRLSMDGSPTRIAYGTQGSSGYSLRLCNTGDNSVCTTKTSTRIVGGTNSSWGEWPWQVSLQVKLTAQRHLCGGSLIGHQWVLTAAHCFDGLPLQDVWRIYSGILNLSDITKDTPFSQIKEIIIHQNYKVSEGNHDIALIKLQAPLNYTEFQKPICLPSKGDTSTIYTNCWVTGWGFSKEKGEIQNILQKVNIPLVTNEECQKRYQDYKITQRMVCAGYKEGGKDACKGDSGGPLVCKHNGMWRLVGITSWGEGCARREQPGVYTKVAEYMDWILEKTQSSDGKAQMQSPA
T1 sequence (P17538 19-263): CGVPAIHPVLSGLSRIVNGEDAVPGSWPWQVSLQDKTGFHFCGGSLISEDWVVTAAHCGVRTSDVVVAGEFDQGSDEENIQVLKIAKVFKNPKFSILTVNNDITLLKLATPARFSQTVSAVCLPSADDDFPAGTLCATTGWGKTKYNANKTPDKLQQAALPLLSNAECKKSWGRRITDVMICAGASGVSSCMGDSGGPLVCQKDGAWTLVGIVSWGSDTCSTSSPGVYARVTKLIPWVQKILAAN

B1: rACTPCI (other)
chain: MRGSHHHHHHSRHPNSPLDEENLTQENQDRGTHVDLGLASANVDFAFSLYKQLVLKAPDKNVIFSPLSISTALAFLSLGAHNTTLTEILKGLKFNLTETSEAEIHQSFQHLLRTLNQSSDELQLSMGNAMFVKEQLSLLDRFTEDAKRLYGSEAFATDFQDSAAAKKLINDYVKNGTRGKITDLIKDLDSQTMMVLVNYIFFKAKWEMPFDPQDTHQSRFYLSKKKWVMVPMMSLHHLTIPYFRDEELSCTVVELKYTGNASALFILPDQDKMEEVEAMLLPETLKRWRDSLEFREIGELYLPKFSISRDYNLNDILLQLGIEEAFTSKADLSGITGARNLAVSQVVHKAVLDVFEEGTEASAATAVKITFRSALVETRTIVRFNRPFLMIIVPTDTQNIFFMSKVTNPKQA
notes: E. coli TG1, Ni-NTA purified; also called MDCI; MD CI
On to B1, for which the kon was 86200 M⁻¹ s⁻¹ in assay [1], 25900 M⁻¹ s⁻¹ in assay [2] and 287000 M⁻¹ s⁻¹ in assay [3]. For the same molecule, the INHIBITION % in assay [4] was 98%; in assay [5] it was 100%; in assay [6] it was 0%; with thrombin, 0%; in [7] it was 100%; with human kallikrein 8 (hK8) [8] it was ~25%. The “SI (stoichiometry of inhibition)” value in [9] is 1; in [10], 4.6; in assay [11] it was 3.2; with human kallikrein 8 (hK8) [12], ~180. In addition, the binding result (with human kallikrein 2 (hK2); in assay [13]) was “binds” in each case.
